Results published in PMC3583667 (Molecular Biology of the Cell, 2013).
Like-named read-outs stand apart in the source and are kept apart here.

How the values were obtained:
Test in all cases: co-IP
[1] = molecular target: T1, EGFP–Rab11-FIP1A (UniProt Q6WKZ4-1 1-612)
T1 sequence (looked up): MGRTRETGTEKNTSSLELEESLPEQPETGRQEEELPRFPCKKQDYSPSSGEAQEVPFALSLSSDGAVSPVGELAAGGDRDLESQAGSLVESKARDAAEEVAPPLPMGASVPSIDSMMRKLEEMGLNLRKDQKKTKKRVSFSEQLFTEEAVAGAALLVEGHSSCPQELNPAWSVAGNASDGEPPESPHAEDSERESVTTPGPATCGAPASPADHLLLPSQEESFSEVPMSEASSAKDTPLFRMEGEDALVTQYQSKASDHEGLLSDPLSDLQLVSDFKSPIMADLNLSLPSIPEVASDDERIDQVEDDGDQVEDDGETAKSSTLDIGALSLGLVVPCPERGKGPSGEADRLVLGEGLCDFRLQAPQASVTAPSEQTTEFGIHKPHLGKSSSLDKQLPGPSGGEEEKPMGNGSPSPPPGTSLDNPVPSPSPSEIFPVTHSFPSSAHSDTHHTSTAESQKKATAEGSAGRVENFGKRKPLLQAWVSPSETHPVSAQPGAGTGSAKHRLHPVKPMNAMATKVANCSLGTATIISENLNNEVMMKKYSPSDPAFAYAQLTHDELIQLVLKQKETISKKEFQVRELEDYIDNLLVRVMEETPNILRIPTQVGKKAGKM

[2] = molecular target: T2, EGFP–Rab11-FIP1B (UniProt Q6WKZ4-4 1-1283)
T2 sequence (looked up): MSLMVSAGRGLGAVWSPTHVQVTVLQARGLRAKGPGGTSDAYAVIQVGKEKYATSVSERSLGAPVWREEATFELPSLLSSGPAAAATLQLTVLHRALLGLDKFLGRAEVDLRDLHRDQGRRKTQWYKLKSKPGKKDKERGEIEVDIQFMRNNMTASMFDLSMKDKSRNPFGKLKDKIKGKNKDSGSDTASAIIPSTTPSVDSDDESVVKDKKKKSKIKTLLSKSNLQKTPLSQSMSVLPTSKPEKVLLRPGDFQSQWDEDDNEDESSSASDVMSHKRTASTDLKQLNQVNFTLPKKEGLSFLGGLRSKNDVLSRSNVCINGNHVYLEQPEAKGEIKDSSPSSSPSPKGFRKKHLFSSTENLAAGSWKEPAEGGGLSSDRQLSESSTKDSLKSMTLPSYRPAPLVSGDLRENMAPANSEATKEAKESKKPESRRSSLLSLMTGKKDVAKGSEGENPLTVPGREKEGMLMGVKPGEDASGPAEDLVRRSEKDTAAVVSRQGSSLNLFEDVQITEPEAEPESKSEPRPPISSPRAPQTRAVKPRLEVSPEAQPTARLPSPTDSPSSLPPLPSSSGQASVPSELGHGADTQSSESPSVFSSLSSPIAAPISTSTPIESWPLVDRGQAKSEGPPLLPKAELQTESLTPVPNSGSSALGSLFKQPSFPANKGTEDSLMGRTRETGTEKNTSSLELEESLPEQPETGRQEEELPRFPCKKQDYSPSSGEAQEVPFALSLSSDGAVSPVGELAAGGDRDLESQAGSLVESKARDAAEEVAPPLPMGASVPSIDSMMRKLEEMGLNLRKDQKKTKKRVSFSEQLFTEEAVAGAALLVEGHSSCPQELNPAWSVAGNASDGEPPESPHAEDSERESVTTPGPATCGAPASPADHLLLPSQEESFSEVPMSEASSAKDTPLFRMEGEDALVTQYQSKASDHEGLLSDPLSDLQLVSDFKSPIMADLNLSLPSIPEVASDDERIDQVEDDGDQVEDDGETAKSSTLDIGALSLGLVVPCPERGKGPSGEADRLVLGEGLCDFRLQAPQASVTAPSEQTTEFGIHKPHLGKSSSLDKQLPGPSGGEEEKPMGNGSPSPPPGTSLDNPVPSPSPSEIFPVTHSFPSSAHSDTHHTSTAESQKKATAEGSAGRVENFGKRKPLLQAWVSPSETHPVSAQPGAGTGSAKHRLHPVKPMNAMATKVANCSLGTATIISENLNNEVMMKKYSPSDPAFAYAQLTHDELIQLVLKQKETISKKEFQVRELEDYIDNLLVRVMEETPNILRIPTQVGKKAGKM

[3] = molecular target: T3, EGFP–Rab11-FIP1C (UniProt Q6WKZ4-3 1-649)
T3 sequence (looked up): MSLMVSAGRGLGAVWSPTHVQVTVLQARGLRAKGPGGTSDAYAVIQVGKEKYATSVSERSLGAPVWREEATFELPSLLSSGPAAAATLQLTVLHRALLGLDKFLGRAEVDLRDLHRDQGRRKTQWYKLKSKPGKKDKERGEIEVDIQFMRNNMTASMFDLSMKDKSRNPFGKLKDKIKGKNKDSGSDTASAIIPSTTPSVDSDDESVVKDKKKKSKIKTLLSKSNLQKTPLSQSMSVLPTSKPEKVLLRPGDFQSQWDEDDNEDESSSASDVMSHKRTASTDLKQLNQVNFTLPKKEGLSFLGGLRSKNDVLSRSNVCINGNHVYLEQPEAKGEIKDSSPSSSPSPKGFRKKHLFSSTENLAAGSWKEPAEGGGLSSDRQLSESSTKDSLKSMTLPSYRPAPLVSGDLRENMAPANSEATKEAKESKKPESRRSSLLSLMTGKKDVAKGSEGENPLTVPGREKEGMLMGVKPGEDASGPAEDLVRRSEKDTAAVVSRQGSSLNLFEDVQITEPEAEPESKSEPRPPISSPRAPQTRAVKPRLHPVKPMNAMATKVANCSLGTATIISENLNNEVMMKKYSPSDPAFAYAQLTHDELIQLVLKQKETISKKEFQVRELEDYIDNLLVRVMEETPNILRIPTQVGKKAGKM

[4] = molecular target: T1, EGFP–Rab11-FIP1A; remark: listed apart in the source
[5] = molecular target: T2, EGFP–Rab11-FIP1B; remark: listed apart in the source
[6] = molecular target: T3, EGFP–Rab11-FIP1C; remark: listed apart in the source

B1: mCherry–Rab11-FIP1A (natural protein, UniProt Q6WKZ4-1 1-612, looked up)
chain: MGRTRETGTEKNTSSLELEESLPEQPETGRQEEELPRFPCKKQDYSPSSGEAQEVPFALSLSSDGAVSPVGELAAGGDRDLESQAGSLVESKARDAAEEVAPPLPMGASVPSIDSMMRKLEEMGLNLRKDQKKTKKRVSFSEQLFTEEAVAGAALLVEGHSSCPQELNPAWSVAGNASDGEPPESPHAEDSERESVTTPGPATCGAPASPADHLLLPSQEESFSEVPMSEASSAKDTPLFRMEGEDALVTQYQSKASDHEGLLSDPLSDLQLVSDFKSPIMADLNLSLPSIPEVASDDERIDQVEDDGDQVEDDGETAKSSTLDIGALSLGLVVPCPERGKGPSGEADRLVLGEGLCDFRLQAPQASVTAPSEQTTEFGIHKPHLGKSSSLDKQLPGPSGGEEEKPMGNGSPSPPPGTSLDNPVPSPSPSEIFPVTHSFPSSAHSDTHHTSTAESQKKATAEGSAGRVENFGKRKPLLQAWVSPSETHPVSAQPGAGTGSAKHRLHPVKPMNAMATKVANCSLGTATIISENLNNEVMMKKYSPSDPAFAYAQLTHDELIQLVLKQKETISKKEFQVRELEDYIDNLLVRVMEETPNILRIPTQVGKKAGKM
percentage of total FIP1A recovered on the beads [1]: 15.2%
percentage of total FIP1A recovered on the beads [2]: 11.8%
percentage of total FIP1A recovered on the beads [3]: 15.2%
percentage of total FIP1A recovered on the beads [4]: 18.6%
percentage of total FIP1A recovered on the beads [5]: 13.4%
percentage of total FIP1A recovered on the beads [6]: 11.6%
